In patent US20150344888A1 (published 2015):

B1: peptide USP30-8 (peptide)
peptide: VSRCYIFWNEMFCDVE
B2: pep8 (peptide)
peptide: VSRCYIFWNEMFCDVE

Legend:
Assay in all cases: ubiquitin-AMC enzyme inhibition
USP2 = molecular target: T1, USP2 (UniProt O75604 259-605)
T1 chain: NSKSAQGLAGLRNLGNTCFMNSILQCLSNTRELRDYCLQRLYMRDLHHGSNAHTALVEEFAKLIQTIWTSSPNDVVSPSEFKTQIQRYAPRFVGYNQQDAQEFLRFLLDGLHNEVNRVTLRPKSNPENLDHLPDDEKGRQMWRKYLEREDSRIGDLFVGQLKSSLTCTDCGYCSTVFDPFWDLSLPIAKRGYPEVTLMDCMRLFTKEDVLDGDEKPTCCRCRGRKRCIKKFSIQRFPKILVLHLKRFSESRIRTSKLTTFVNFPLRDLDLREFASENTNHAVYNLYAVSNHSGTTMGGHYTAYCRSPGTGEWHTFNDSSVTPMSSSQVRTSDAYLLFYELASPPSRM

UCHL3 = molecular target: T2, UCHL3 (UniProt P15374 1-230)
T2 chain: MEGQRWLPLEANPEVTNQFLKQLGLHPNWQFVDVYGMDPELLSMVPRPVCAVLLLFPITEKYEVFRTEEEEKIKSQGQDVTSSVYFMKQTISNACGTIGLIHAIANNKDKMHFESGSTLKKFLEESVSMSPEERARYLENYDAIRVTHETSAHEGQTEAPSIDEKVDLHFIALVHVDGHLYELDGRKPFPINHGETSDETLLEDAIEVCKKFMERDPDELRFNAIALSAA

[1] = molecular target: T3, USP30 (active enzyme in the ubiquitin-AMC assay) (UniProt Q70CQ3 57-517)
T3 chain: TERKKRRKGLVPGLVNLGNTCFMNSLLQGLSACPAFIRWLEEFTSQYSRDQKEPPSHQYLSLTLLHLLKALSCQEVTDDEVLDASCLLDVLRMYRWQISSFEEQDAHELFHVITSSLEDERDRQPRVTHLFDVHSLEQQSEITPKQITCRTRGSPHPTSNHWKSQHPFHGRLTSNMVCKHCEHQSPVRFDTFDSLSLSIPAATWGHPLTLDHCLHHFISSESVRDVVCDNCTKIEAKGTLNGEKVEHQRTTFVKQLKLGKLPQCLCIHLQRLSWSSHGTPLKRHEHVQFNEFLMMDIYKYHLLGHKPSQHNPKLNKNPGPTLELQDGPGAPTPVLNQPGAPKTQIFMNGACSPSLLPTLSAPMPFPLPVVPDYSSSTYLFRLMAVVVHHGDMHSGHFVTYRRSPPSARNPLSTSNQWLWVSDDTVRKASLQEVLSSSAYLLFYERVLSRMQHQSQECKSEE

USP5 = molecular target: T4, USP5 (UniProt P45974 1-858)
T4 chain: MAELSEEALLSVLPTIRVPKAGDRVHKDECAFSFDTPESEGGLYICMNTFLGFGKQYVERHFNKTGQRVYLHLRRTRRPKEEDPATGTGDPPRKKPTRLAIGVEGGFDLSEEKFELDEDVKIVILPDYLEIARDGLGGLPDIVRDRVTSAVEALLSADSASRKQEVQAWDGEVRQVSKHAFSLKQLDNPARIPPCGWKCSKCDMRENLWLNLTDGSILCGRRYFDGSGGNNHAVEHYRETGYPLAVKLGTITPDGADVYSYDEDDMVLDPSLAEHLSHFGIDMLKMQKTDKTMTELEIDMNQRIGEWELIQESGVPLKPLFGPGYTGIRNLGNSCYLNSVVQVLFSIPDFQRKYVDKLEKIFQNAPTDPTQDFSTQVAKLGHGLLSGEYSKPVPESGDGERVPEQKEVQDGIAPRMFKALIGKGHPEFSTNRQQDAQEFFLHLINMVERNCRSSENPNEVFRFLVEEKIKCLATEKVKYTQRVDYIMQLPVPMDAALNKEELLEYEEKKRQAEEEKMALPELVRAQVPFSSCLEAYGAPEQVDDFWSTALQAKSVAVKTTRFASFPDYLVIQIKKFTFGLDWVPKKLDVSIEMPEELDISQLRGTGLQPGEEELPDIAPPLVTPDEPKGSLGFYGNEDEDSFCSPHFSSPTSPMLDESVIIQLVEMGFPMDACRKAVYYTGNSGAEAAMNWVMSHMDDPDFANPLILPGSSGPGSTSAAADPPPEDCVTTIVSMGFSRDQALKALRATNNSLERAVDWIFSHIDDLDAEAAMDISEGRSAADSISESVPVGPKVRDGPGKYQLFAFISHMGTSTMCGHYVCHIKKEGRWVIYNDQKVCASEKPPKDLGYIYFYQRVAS

USP7 = molecular target: USP7

Binder | IC50 (USP2) | IC50 (UCHL3) | IC50 [1] | IC50 (USP5) | IC50 (USP7)
B1 | ~200 µM | 194 µM | 121 µM | 42.9 µM | –
B2 | – | – | – | – | 31.7 µM
